Measured values reported in US20260167698A1 (ONO PHARMACEUTICAL, published 2026).

Target: T1, human Allergin-1L (expressed on CHO cells) (human, UniProt Q7Z6M3 20-343)
T1 construct: also called MILR1; human Allergin-1L-expressing CHO cell lines
T1 sequence: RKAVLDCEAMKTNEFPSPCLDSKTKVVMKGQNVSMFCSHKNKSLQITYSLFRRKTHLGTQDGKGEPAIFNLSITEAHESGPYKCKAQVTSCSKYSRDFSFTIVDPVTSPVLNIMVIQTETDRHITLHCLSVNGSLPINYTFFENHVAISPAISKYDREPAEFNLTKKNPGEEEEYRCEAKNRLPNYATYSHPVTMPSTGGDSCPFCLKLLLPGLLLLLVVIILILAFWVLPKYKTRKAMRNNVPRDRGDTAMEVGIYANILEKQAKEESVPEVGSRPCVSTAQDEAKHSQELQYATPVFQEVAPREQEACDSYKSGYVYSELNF
Assay: flow cytometry, binding to Allergin-1L

EC50: 1.49 nM
B1: anti-Allergin-1 bispecific antibody #15p_h_opt clone (bispecific antibody, human IgG1, kappa, L234A L235A, N297A)
heavy: EVQLVESGGGLVQPGGSLRLSCAASGFSLTIYTITWVRQAPGKGLEWIGTINSYGNTYYSTWAKGRFTISRDNSKNTVYLQMNSLRAEDTAVYYCARGYVDSDWYLNIWGQGTLVTVSSASTKGPSVFPLAPSSKSTSGGTAALGCLVKDYFPEPVTVSWNSGALTSGVHTFPAVLQSSGLYSLSSVVTVPSSSLGTQTYICNVNHKPSNTKVDKRVEPKSCDKTHTCPPCPAPEAAGGPSVFLFPPKPKDTLMISRTPEVTCVVVDVSHEDPEVKFNWYVDGVEVHNAKTKPREEQYASTYRVVSVLTVLHQDWLNGKEYKCKVSNKALPAPIEKTISKAKGQPREPQVYTLPPSREEMTKNQVSLTCLVKGFYPSDIAVEWESNGQPENNYKTTPPVLDSDGSFFLYSKLTVDKSRWQQGNVFSCSVMHEALHNHYTQKSLSLSPGGGGGSGGGGSDIQMTQSPSSLSASVGDRVTITCQASESIGSLLAWYQQKPGKAPKLLIYRASTLESGVPSRFSGSGSGTDFTLTISSLQPEDFATYYCQSYHYSSSSSYAAFGCGTKVTVLGGGGGSGGGGSGGGGSGGGGSEVQLVESGGGLVQPGGSLRLSCAASGFSLSSHAMSWVRQAPGKCLEWIGTISTIDTTYYASWAKGRFTISRDNSKNTVYLQMNSLRAEDTAVYYCARLSELYTTNSYYSRWGQGTLVTVSS
light: AIQMTQSPSSLSARVGDRVTITCQSSESVYDNNYLSWYQQKPGKAPKLLIYDASRLASGVPSRFSGSGSGTQFTLTISSLQPEDFATYYCLGGYDSSGWYAAFGQGTKVEIKRTVAAPSVFIFPPSDEQLKSGTASVVCLLNNFYPREAKVQWKVDNALQSGNSQESVTEQDSKDSTYSLSSTLTLSKADYEKHKVYACEVTHQGLSSPVTKSFNRGEC
notes: Morrison form: Fab Pro2281, scFv Pro2285
